One molecule from patent US20150105324A1 (INDIANA UNIVERSITY RESEARCH AND TECHNOLOGY, published 2015) can be followed below.

The test addresses biotinylated PSD95 (PDZ domains 1-3, residues 1-435 of human PSD95, fused to a biotin acceptor peptide) (human, UniProt P78352 1-435, biotin at its internal biotin acceptor site).

As usually defined, the IC50 is the midpoint of a concentration-inhibition curve. Higher therefore signals lower potency.

Sequence of biotinylated PSD95 (PDZ domains 1-3, residues 1-435 of human PSD95, fused to a biotin acceptor peptide) (P78352 1-435): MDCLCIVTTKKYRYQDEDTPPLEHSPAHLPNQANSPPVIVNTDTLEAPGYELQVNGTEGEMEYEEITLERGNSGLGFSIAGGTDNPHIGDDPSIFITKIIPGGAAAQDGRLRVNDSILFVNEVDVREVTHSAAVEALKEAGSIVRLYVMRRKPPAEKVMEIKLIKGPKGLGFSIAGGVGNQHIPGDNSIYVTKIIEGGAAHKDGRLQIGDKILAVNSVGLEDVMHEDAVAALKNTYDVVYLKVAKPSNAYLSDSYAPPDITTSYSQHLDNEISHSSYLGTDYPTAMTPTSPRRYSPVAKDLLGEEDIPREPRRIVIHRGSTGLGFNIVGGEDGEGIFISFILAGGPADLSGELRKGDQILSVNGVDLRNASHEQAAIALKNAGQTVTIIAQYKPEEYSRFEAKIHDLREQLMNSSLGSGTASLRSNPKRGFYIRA

B1: Tat-nNOS (1-299) fusion protein (other)
chain: YGRKKRRQRRRMEDHMFGVQQIQPNVISVRLFKRKVGGLGFLVKERVSKPPVIISDLIRGGAAEQSGLIQAGDIILAVNGRPLVDLSYDSALEVLRGIASETHVVLILRGPEGFTTHLETTFTGDGTPKTIRVTQPLGPPTKAVDLSHQPPAGKEQPLAVDGASGPGNGPQHAYDDGQEAGSLPHANGLAPRPPGQDPAKKATRVSLQGRGENNELLKEIEPVLSLLTSGSRGVKGGAPAKAEMKDMGIQVDRDLDGKSHKPLPLGVENDRVFNDLWGKGNVPVVLNNPYSEKEQPPTSGKQSPTKNGSP
B1: the IC50 stood at 300 nM.
